# Reference: patent publication US20250250330A1 (REVOPSIS THERAPEUTICS, published 2025)
# T1: rdVEGF163 (canine/dog; R&D 1603-CV-010/CF) (Canine/Dog, UniProt Q9MYV3-3 27-190, limits assumed)
# T1 construct: Bought protein; also called Dog VEGF-A
# T1 sequence (looked up): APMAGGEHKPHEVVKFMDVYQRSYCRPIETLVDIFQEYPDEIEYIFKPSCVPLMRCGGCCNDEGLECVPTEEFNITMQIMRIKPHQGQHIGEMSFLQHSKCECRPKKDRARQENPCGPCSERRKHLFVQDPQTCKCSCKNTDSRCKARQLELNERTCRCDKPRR
# T2: rhVEGF-B_AcroBio (AcroBio_VE6-H5225) (human, UniProt P49765 22-207)
# T2 construct: Bought protein; not shown: His tag
# T2 sequence (looked up): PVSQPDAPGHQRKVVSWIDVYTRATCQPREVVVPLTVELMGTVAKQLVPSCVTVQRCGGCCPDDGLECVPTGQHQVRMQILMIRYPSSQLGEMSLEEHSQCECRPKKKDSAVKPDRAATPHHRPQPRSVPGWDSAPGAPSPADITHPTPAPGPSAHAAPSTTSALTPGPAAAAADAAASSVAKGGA
# T3: His-tagged recombinant human ANG-2 (AcroBiosystems, Cat #AN2-H52H4) (human, UniProt O15123 275-496)
# T3 construct: also called rhANG-2; rhANG-2-His; not shown: His tag
# T3 sequence (looked up): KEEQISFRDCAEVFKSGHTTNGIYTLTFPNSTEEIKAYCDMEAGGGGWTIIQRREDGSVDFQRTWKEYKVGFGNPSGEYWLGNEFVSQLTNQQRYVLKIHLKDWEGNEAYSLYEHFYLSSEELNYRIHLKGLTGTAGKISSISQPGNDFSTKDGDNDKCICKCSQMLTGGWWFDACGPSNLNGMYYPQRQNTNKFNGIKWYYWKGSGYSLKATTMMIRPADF
# T4: rhVEGF-C (AcroBio_VEC-H4225) (human, UniProt P49767 103-227, limits assumed)
# T4 construct: domain: PDGF domain; Bought protein; not shown: His tag
# T4 sequence (looked up): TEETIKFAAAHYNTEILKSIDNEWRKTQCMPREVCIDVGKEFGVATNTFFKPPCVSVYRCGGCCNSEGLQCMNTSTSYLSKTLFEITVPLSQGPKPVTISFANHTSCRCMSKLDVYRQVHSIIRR
# T5: rhVEGF-D (AcroBio_VED-H5228) (human, UniProt O43915 89-205, limits assumed)
# T5 construct: domain: PDGF domain; Bought protein; not shown: His tag
# T5 sequence (looked up): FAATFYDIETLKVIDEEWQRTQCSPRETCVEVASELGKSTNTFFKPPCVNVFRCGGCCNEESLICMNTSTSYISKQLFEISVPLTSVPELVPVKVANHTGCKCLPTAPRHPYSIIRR
# T6: rhPlGF-1 (Peprotech_100-06) (human, UniProt P49763-2 19-149)
# T6 construct: Bought protein; also called rhPIGF-1; PIGF-1
# T6 sequence (looked up): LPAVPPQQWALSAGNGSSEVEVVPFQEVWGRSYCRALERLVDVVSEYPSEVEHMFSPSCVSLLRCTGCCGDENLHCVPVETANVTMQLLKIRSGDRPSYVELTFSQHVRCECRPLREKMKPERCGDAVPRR
# Columns and labels:
# [1] = target: T1, rdVEGF163 (canine/dog; R&D …); test: ELISA on coated dog VEGF-A
# [2] = target: T7, Recombinant human VEGF165 (Peprotech, Cat #100-20) (human, UniProt P15692-4 27-191); test: ELISA on coated human VEGF-A (rhVEGF165)
# T7 construct: Bought protein; also called rhVEGF165; rh VEGF165
# [3] = target: T2, rhVEGF-B_AcroBio (AcroBio_VE6-H5225); test: ELISA; target coated at 1 ug/mL, anti-human IgG Fc-HRP detection
# Description: (§1) First, the binding to rhVEGF-B was tested in comparison with rhVEGF₁₆₅. rhVEGF-B or rhVEGF₁₆₅ was used to coat Corning 9017 medium binding plates at 1 μg/mL and […] per well. […] Donkey anti-human IgG Fcγ-HRP was used for detection. OD450 nm readings were measured by Victor 3.
# [4] = target: T7, Recombinant human VEGF165 (Peprotech, …); test: as above
# Description: as §1
# [5] = target: T7, Recombinant human VEGF165 (Peprotech, …); test: competition ELISA; rhVEGF165 coated, competitor biotinylated rhVEGF R2/KDR
# Description: (§2) The mixture was added to ELISA binding plates which contained rhVEGF₁₆₅ coating. […] The receptor binding was detected by HRP-conjugated streptavidin (Jackson ImmunoResearch Laboratories, Cat #016-030-084) and visualized by TMB substrate.
# [6] = target: T3, His-tagged recombinant human ANG-2 …; test: competition ELISA; His-tagged rhANG-2 in solution, competitor coated rhTie-2-Fc
# [7] = target: T7, Recombinant human VEGF165 (Peprotech, …); test: ELISA on rhVEGF165; biotinylated anti-VpreB antibody and streptavidin-HRP detection
# [8] = target: T7, Recombinant human VEGF165 (Peprotech, …); test: competition ELISA; IC50 ratio against Faricimab for inhibition of VEGF165-VEGF R2/KDR binding
# Description: as §2
# [9] = target: T4, rhVEGF-C (AcroBio_VEC-H4225); test: ELISA: rhVEGF-C_AcroBio coated at 1 ug/mL, RO-101_Sample 1 titrated, detected with anti-human IgG Fc-gamma-HRP
# Description: (§3) Different target proteins were used to coat Corning 9017 medium binding plates at 1 μg/mL and 100 μl per well. Donkey anti-human IgG Fcγ-HRP was used for detection. OD450 nm readings were measured by Victor 3.
# [10] = target: T5, rhVEGF-D (AcroBio_VED-H5228); test: ELISA: rhVEGF-D_AcroBio coated at 1 ug/mL, RO-101_Sample 1 titrated, detected with anti-human IgG Fc-gamma-HRP
# Description: as §3
# [11] = target: T6, rhPlGF-1 (Peprotech_100-06); test: ELISA: rhPlGF-1_Peprotech coated at 1 ug/mL, RO-101_Sample 1 from 100 nM in 1:3 dilutions, detected with anti-human IgG Fc-gamma-HRP
# Description: Third, the binding to rhPIGF-1 or rhPIGF-3 was tested in comparison with rhVEGF₁₆₅. Target proteins were used to coat Corning 9017 medium binding plates at 1 μg/mL and 100 μl per well. […] Donkey anti-human IgG Fcγ-HRP was used for detection. OD450 nm readings were measured by Victor 3.
binder,measurement,setting,value
"RO-101 VEGF/ANG-2 bispecific surrobody (bispecific antibody, human IgG1, L234A L235A, Format SgG1; also called Sample 1) heavy 1: not shown heavy 2: EVQLVESGGGLVKPGGSLRLSCAASGFTFSSYGMHWVRQAPGKGLEWVAGISADSGDKNYADSVKGRFTISRDNAKNSLYLQMNSLRAEDTAVYYCAKEFISWIYTFDYLDYWGQGTLVTVSSASTKGPSVFPLAPSSKSTSGGTAALGCLVKDYFPEPVTVSWNSGALTSGVHTFPAVLQSSGLYSLSSVVTVPSSSLGTQTYICNVNHKPSNTKVDKKVEPKSCDKTHTCPPCPAPEAAGGPSVFLFPPKPKDTLMISRTPEVTCVVVDVSHEDPEVKFNWYVDGVEVHNAKTKPREEQYNSTYRVVSVLTVLHQDWLNGKEYKCKVSNKALPAPIEKTISKAKGQPREPQVCTLPPSRDELTKNQVSLSCAVKGFYPSDIAVEWESNGQPENNYKTTPPVLDSDGSFFLVSKLTVDKSRWQQGNVFSCSVMHEALHNHYTQKSLSLSPG light: QPVLHQPPAMSSALGTTIRLTCTLRNDHDIGVYSVYWYQQRPGHPPRFLLRYFSQSDKSQGPQVPPRFSGSKDVARNRGYLSISELQPEDEAMYYCAMGARSSVTHVFGSGTQLTVLSQPKATPSVTLFPPSSEELQANKATLVCLMNDFYPGILTVTWKADGTPITQGVEMTTPSKQSNNKYAASSYLSLTPEQWRSRRSYSCQVMHEGSTVEKTVAPAECS",EC50,[1],23.7 pM
same,EC50,[2],17.1 pM
same,EC50,[3],> 100000 pM
same,EC50,[4],16.5 pM
same,IC50,[5],1990 pM
same,IC50,[6],787 pM
same,EC50,[7],5.7 pM
same,Fold,[8],3.25 fold
same,binding result,[9],no binding (tested: 100 nM (Log(nM) 2))
same,binding result,[10],no binding (tested: 100 nM (Log(nM) 2))
same,binding result,[11],no binding (tested: 100 nM (Log(nM) 2))
